# In patent US20120288511A1 (INDIANA UNIVERSITY RESEARCH AND TECHNOLOGY, published 2012):
# Non-standard residues stand in square brackets, D forms with d. No end group written: not given here. *: point of attachment. Palmitoyl = CCCCCCCCCCCCCCCC(=O)*; Aib = CC(C)(N)C(=O)O
# B1: Peptide 15 (peptide)
# peptide: KHSQETFTSDYSKYLDSRRAQDFVQWLMNT
# modifications: not fully specified; amidated unless FIG. 1 shows OH; lactam, D-residues, Orn/Dab only as drawn in FIG. 1
# B2: Peptide 14 (peptide)
# peptide: B1 peptide
# modifications: not fully specified; amidated unless FIG. 1 shows OH; lactam, D-residues, Orn/Dab only as drawn in FIG. 1
# Biological target: T1, glucagon receptor (human, UniProt P47871 26-477)
# Experiment: cell-based or functional assay
# T1 sequence (P47871 26-477): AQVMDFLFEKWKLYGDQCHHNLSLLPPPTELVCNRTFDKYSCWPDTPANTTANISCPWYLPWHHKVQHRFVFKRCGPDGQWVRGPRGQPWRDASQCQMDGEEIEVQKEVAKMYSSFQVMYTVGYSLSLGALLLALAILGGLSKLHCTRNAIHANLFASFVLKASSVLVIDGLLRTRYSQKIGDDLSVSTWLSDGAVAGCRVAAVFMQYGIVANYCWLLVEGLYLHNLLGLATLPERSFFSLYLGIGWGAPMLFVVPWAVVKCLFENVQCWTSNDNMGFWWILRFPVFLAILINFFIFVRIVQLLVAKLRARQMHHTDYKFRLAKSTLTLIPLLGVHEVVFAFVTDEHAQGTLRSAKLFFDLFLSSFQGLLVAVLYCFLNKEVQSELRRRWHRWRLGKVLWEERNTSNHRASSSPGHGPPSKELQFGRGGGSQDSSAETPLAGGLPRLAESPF
row,Binder,EC50 (cAMP luciferase reporter) [nM]
1,KAHSEGTFTSDYSKYLDSRRAQDFVQWLMNT (not fully specified; also: further groups not given here) [Peptide 12],85.9
2,KAHSEGTFTSDYSKYLDSRRAQDFVQWLMNT (not fully specified; also: further groups not given here) [Peptide 13],30.7

# Biological target: T2, GLP-1 receptor (human, UniProt P43220 24-463)
# Experiment: cell-based or functional assay
row,Binder,EC50 (cAMP luciferase reporter) [nM]
1,B1,73.4
2,KAHSEGTFTSDYSKYLDSRRAQDFVQWLMNT (not fully specified; also: further groups not given here) [Peptide 12],41.7
3,KAHSEGTFTSDYSKYLDSRRAQDFVQWLMNT (not fully specified; also: further groups not given here) [Peptide 13],14.3
4,B2,33
5,HSQKTFTEDYSKYLDSRRAQDFVQWLMNT (not fully specified; also: further groups not given here) [Peptide 16],121
6,HSQGTFTSDYSKYLDSKRAQEFVQWLMNT-NH2 [Peptide 1],0.13

# Biological target: T1, glucagon receptor
# Experiment: cell-based or functional assay
# Remark: another data set of the same source
Binder,% Relative Activity vs native glucagon [%],EC50 (cAMP luciferase reporter) [nM]
HSQGTFTSDYSKYLDERRAKDFVQWLMNT-NH2 (not fully specified; also: further groups not given here) [Glucagon Analog 67],93,0.077
HSQGTFTSDYSKYLDEKRAKEFVQWLMNT-NH2 (not fully specified; also: further groups not given here) [Glucagon Analog 65],264,0.053
HSQGTFTSDYSKYLDEKRAKEFVCWLLDGGPSSGAPPPS-NH2 (not fully specified; also: further groups not given here) [Glucagon Analog 61],88,0.017
HSQGTFTSDYSKYLDERRAKEFVQWLMNT-NH2 (not fully specified; also: further groups not given here) [Glucagon Analog 68],104,0.068

# Biological target: T2, GLP-1 receptor
# Experiment: cell-based or functional assay
# Remark: another data set of the same source
Binder,% Relative Activity vs native GLP-1 [%],EC50 (cAMP luciferase reporter) [nM]
HSQGTFTSDYSKYLDERRAKDFVQWLMNT-NH2 (not fully specified; also: further groups not given here) [Glucagon Analog 67],47,0.071
HSQGTFTSDYSKYLDEKRAKEFVQWLMNT-NH2 (not fully specified; also: further groups not given here) [Glucagon Analog 65],64,0.036
HSQGTFTSDYSKYLDEKRAKEFVCWLLDGGPSSGAPPPS-NH2 (not fully specified; also: further groups not given here) [Glucagon Analog 61],39,0.096
HSQGTFTSDYSKYLDERRAKEFVQWLMNT-NH2 (not fully specified; also: further groups not given here) [Glucagon Analog 68],44,0.075
HSQGTFTSDYSKYLDSKRAQEFVQWLMNT-NH2 (also: non-coded residues and acylation only) [Glucagon Analog 66],–,0.13

# Biological target: T1, glucagon receptor
# Experiment: cell-based or functional assay
# Remark: another data set of the same source
Binder,% Relative Activity vs native glucagon [%],EC50 (cAMP luciferase reporter) [nM]
"HAQGTFTSDKSKYLDERAAQDFVC(PEG 40 kDa)WLLDT-NH2 (also: other non-coded residues as, not given here) [Glucagon Analog 81]",51.4,37000
HSQGTFTSDKSKYLDEQAAKEFIC(PEG 40 kDa)WLLDTGG-NH2 (not fully specified; also: further groups not given here) [Glucagon Analog 78],44,140000
HSQGTFTSDKSKYLDEQAAKEFICWLLDTE-NH2 (not fully specified; also: further groups not given here) [Glucagon Analog 83],61,28000
HSQGTFTSDKSKYLDEQAAKEFICWLLDE-NH2 (not fully specified; also: further groups not given here) [Glucagon Analog 82],121,14000
HSQGTFTSDKSKYLDEQAAKEFIC(PEG 40 kDa)WLLDT-NH2 (not fully specified; also: further groups not given here) [Glucagon Analog 79],26,240000

# Biological target: T2, GLP-1 receptor
# Experiment: cell-based or functional assay
# Remark: another data set of the same source
Binder,% Relative Activity vs native GLP-1 [%],EC50 (cAMP luciferase reporter) [nM]
"HAQGTFTSDKSKYLDERAAQDFVC(PEG 40 kDa)WLLDT-NH2 (also: other non-coded residues as, not given here) [Glucagon Analog 81]",300,0.012
HSQGTFTSDKSKYLDEQAAKEFIC(PEG 40 kDa)WLLDTGG-NH2 (not fully specified; also: further groups not given here) [Glucagon Analog 78],196,0.026
HSQGTFTSDKSKYLDEQAAKEFICWLLDTE-NH2 (not fully specified; also: further groups not given here) [Glucagon Analog 83],288,0.024
HSQGTFTSDKSKYLDEQAAKEFICWLLDE-NH2 (not fully specified; also: further groups not given here) [Glucagon Analog 82],345,0.02
HSQGTFTSDKSKYLDEQAAKEFIC(PEG 40 kDa)WLLDT-NH2 (not fully specified; also: further groups not given here) [Glucagon Analog 79],41,0.125

# Biological target: T1, glucagon receptor
# Experiment: cell-based or functional assay
# Remark: another data set of the same source
Binder,% Relative Activity vs native glucagon [%],EC50 (cAMP luciferase reporter) [nM]
HSQGTFTSDKSKYLDEQAAKEFICWLLDTGG (not fully specified) [Glucagon Analog 56],272,0.018
"HSQGTFTSDKSKYLDEQAAKEFICWLLDT (also: DPP-IV-resistant residue at position 1 or 2, not given here) [Glucagon Analog 53]",411,0.009
HSQGTFTSDKSKYLDEQAAKEFICWLLDTG (not fully specified) [Glucagon Analog 55],7,0.55
"HSQGTFTSDKSKYLDEQAAKEFICWLLDT (also: DPP-IV-resistant residue at position 1 or 2, not given here) [Glucagon Analog 57]",1,4.8

# Biological target: T2, GLP-1 receptor
# Experiment: cell-based or functional assay
# Remark: another data set of the same source
Binder,% Relative Activity vs native GLP-1 [%],EC50 (cAMP luciferase reporter) [nM]
HSQGTFTSDKSKYLDEQAAKEFICWLLDTGG (not fully specified) [Glucagon Analog 56],125,0.068
"HSQGTFTSDKSKYLDEQAAKEFICWLLDT (also: DPP-IV-resistant residue at position 1 or 2, not given here) [Glucagon Analog 53]",708,0.012
HSQGTFTSDKSKYLDEQAAKEFICWLLDTG (not fully specified) [Glucagon Analog 55],16,0.516

# Biological target: T1, glucagon receptor
# Experiment: cell-based or functional assay
# Remark: another data set of the same source
Binder,% Relative Activity vs native glucagon [%],EC50 (cAMP luciferase reporter) [nM]
HAQGTFTSDKSKYLDERAAQDFVCWLLDT (not fully specified (C-terminus)) [Glucagon Analog 59],490,0.01

# Biological target: T2, GLP-1 receptor
# Experiment: cell-based or functional assay
# Remark: another data set of the same source
# Target sequence in this assay (P43220 24-463): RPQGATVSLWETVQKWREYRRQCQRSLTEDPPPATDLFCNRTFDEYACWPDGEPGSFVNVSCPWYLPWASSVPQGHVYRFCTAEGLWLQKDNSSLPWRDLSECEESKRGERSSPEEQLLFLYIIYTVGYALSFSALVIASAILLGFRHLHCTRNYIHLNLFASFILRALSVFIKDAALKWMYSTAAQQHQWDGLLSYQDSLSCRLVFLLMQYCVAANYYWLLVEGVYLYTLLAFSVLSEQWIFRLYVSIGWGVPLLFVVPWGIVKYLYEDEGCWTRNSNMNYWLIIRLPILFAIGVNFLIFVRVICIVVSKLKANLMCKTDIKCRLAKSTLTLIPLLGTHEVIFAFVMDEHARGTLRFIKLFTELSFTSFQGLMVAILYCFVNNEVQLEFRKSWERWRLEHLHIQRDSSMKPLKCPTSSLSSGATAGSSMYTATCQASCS
Binder,% Relative Activity vs native GLP-1 [%],EC50 (cAMP luciferase reporter) [nM]
HAQGTFTSDKSKYLDERAAQDFVCWLLDT (not fully specified (C-terminus)) [Glucagon Analog 59],484,0.019

# Biological target: T1, glucagon receptor
# Experiment: cell-based or functional assay
# Remark: another data set of the same source
Binder,EC50 (cAMP luciferase reporter) [nM],percent in parentheses (not explained) [%]
HSQGTFTSDYSKYLDEQAVRLFICWLLDGGPSSGAPPPS-NH2 (not fully specified; also: further groups not given here) [Glucagon Analog 84],0.132,14.4
HSQGTFTSDK(Palmitoyl)SKYLDEEAVRLFIEWLMNT-NH2 [Glucagon Analog 39],2.54,–
HSQGTFTSDYSKYLDEEAVRLFICWLMNT-NH2 (also: DPP-IV-resistant residue at position 1 or 2) [Glucagon Analog 34],0.404,–
HSQGTFTSDKSKYLDEEAVRLFIEWLMNT-NH2 (also: Lys-γGlu-C16 (K(B)) at unstated position) [Glucagon Analog 37],0.119,–
"HSQGTFTSDKSKYLDEQAVRLFIC(PEG 40 kDa)WLLDT-NH2 (also: acylated amino acid at position 10, acyl group not given here) [Glucagon Analog 85]",0.107,16
HSQGTFTSDYSKYLDEEAVRLFICWLMNT-NH2 (also: DPP-IV-resistant residue at position 1 or 2) [Glucagon Analog 32],0.22,–
HSQGTFTSDYSKYLD[Aib]KAVRLFICWLLDT-NH2 [Glucagon Analog 86],0.035,43
HSQGTFTSDYSKYLDEQAVRLFICWLLDT-NH2 (not fully specified; also: further groups not given here) [Glucagon Analog 87],0.021,71

# Biological target: T2, GLP-1 receptor
# Experiment: cell-based or functional assay
# Remark: another data set of the same source
Binder,EC50 (cAMP luciferase reporter) [nM],percent in parentheses (not explained) [%]
HSQGTFTSDYSKYLDEQAVRLFICWLLDGGPSSGAPPPS-NH2 (not fully specified; also: further groups not given here) [Glucagon Analog 84],0.006,600
HSQGTFTSDK(Palmitoyl)SKYLDEEAVRLFIEWLMNT-NH2 [Glucagon Analog 39],0.033,–
HSQGTFTSDYSKYLDEEAVRLFICWLMNT-NH2 (also: DPP-IV-resistant residue at position 1 or 2) [Glucagon Analog 34],0.018,–
HSQGTFTSDKSKYLDEEAVRLFIEWLMNT-NH2 (also: Lys-γGlu-C16 (K(B)) at unstated position) [Glucagon Analog 37],0.011,–
"HSQGTFTSDKSKYLDEQAVRLFIC(PEG 40 kDa)WLLDT-NH2 (also: acylated amino acid at position 10, acyl group not given here) [Glucagon Analog 85]",0.013,284
HSQGTFTSDYSKYLDEEAVRLFICWLMNT-NH2 (also: DPP-IV-resistant residue at position 1 or 2) [Glucagon Analog 32],0.007,–
HSQGTFTSDYSKYLD[Aib]KAVRLFICWLLDT-NH2 [Glucagon Analog 86],0.035,106
HSQGTFTSDYSKYLDEQAVRLFICWLLDT-NH2 (not fully specified; also: further groups not given here) [Glucagon Analog 87],0.013,284
